Where a chain is given by its changes, count along the chain named.

The source of these data is patent US20250019437A1.

First the molecules themselves.
T1: human TREM2 (triggering receptor expressed on myeloid cells 2) (human) (UniProt Q9NZC2)
T1 sequence (looked up): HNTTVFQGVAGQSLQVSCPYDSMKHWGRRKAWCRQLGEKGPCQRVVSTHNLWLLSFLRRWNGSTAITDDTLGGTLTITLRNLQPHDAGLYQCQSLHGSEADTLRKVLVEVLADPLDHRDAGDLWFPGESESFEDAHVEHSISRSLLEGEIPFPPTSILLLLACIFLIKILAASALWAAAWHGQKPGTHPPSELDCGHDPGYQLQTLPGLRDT

B1: 6E7 antibody affinity modulation variant V36 (antibody, V domains shown)
VH: EVQLVQSGAEVKKPGESLKISCKGSGYSFTSYWLAWVRQMPGKGLEWMGIIYPGDSDTRYSPSFQGQVTISADKSISTAYLQWSSLKASDTAMYFCARSRTFYYDSSDYFDYWGQGTLVTVSS
VL: DIQMTQSPSSVSASVGDRVTITCRASQGISSWLAWYQQKPGKAPKLLIYAASSRQNGVPSRFSGSGSGTDFTLTISSLQPEDFATYFCQQADSYPRTFGQGTKLEIK
B2: 6E7 antibody affinity modulation variant V37 (antibody, V domains shown)
VH: B1 VH with F29H, L34I, Q65A
VL: B1 VL with R54L, N56W
B3: 6E7 antibody affinity modulation variant V33 (antibody, V domains shown)
VH: B1 VH with L34I, S99Q, Y104G
VL: B1 VL with R54L, Y94F
B4: 6E7 antibody affinity modulation variant V93 (antibody, V domains shown)
VH: B1 VH with L34I, S99Q
VL: B1 VL with S31G, R54L, Y94F
B5: 6E7 antibody affinity modulation variant V7 (antibody, V domains shown)
VH: B1 VH with Y32E, L34I, S99Q
VL: B1 VL with R54L, Y94F
B6: 6E7 antibody affinity modulation variant V8 (antibody, V domains shown)
VH: B1 VH with L34I, R59K, S99Q
VL: B1 VL with R54L, Y94F
B7: 6E7 antibody affinity modulation variant V11 (antibody, V domains shown)
VH: B1 VH with L34I, S99Q
VL: B1 VL with R54L, D92A, Y94F
B8: 6E7 antibody affinity modulation variant V83 (antibody, V domains shown)
VH: B1 VH with L34I, S99Q
VL: B1 VL with R54L, D92V, Y94F
B9: 6E7 antibody affinity modulation variant V70 (antibody, V domains shown)
VH: B1 VH with L34I, S99Q
VL: B1 VL with S52G, R54L, Y94F
B10: 6E7 antibody affinity modulation variant V19 (antibody, V domains shown)
VH: B1 VH with Y32S, L34I, S99Q
VL: B1 VL with R54L, Y94F
B11: 6E7 antibody affinity modulation variant V22 (antibody, V domains shown)
VH: B1 VH with L34I, S99Q
VL: B1 VL with A50R, R54L, Y94F
B12: 6E7 antibody affinity modulation variant V81 (antibody, V domains shown)
VH: B1 VH with L34I, S99Q
VL: B1 VL with W32L, R54L, Y94F
B13: 6E7 antibody affinity modulation variant V94 (antibody, V domains shown)
VH: B1 VH with L34I, S99Q
VL: B1 VL with S52A, R54L, Y94F
B14: 6E7 antibody affinity modulation variant V9 (antibody, V domains shown)
VH: B1 VH with L34I, S99Q, T101G
VL: B1 VL with R54L, Y94F
B15: 6E7 antibody affinity modulation variant V23 (antibody, V domains shown)
VH: B1 VH with L34I, S99Q
VL: B1 VL with R54L, Y94F, R96L
B16: 6E7 antibody affinity modulation variant V79 (antibody, V domains shown)
VH: B1 VH with L34I, R59N, S99Q
VL: B1 VL with R54L, Y94F
B17: 6E7 antibody affinity modulation variant V71 (antibody, V domains shown)
VH: B1 VH with L34I, S99Q
VL: B1 VL with R54L, Y94E
B18: 6E7 antibody affinity modulation variant V10 (antibody, V domains shown)
VH: B1 VH with L34I, S99Q
VL: B1 VL with A50S, R54L, Y94F
B19: 6E7 antibody affinity modulation variant V21 (antibody, V domains shown)
VH: B1 VH with L34I, S99Q, Y109F
VL: B1 VL with R54L, Y94F
B20: 6E7 antibody affinity modulation variant V92 (antibody, V domains shown)
VH: B1 VH with L34I, S99Q, Y103H
VL: B1 VL with R54L, Y94F
B21: 6E7 antibody affinity modulation variant V30 (antibody, V domains shown)
VH: B1 VH with Y27S, L34I, S99Q
VL: B1 VL with R54L, Y94F
B22: 6E7 antibody affinity modulation variant V32 (antibody, V domains shown)
VH: B1 VH with L34I, P62N, S99Q
VL: B1 VL with R54L, Y94F
B23: 6E7 antibody affinity modulation variant V91 (antibody, V domains shown)
VH: B1 VH with L34I, G54D, S99Q
VL: B1 VL with R54L, Y94F
B24: 6E7 antibody affinity modulation variant V82 (antibody, V domains shown)
VH: B1 VH with L34I, S99Q
VL: B1 VL with A51G, R54L, Y94F
B25: 6E7 antibody affinity modulation variant V90 (antibody, V domains shown)
VH: B1 VH with Y32E, L34I, S99Q
VL: B1 VL with S31R, R54L, Y94F
B26: 6E7 antibody affinity modulation variant V80 (antibody, V domains shown)
VH: B1 VH with L34I, S99Q, T101N
VL: B1 VL with R54L, Y94F
B27: 6E7 antibody affinity modulation variant V31 (antibody, V domains shown)
VH: B1 VH with L34I, D57E, S99Q
VL: B1 VL with R54L, Y94F
B28: 6E7 antibody affinity modulation variant V20 (antibody, V domains shown)
VH: B1 VH with L34I, I50R, S99Q
VL: B1 VL with R54L, Y94F
B29: 6E7 antibody affinity modulation variant V6 (antibody, V domains shown)
VH: B1 VH with Y32M, L34I, S99Q
VL: B1 VL with R54L, Y94F
B30: 6E7 antibody affinity modulation variant V78 (antibody, V domains shown)
VH: B1 VH with S28R, L34I, S99Q
VL: B1 VL with R54L, Y94F
B31: 6E7 antibody affinity modulation variant V18 (antibody, V domains shown)
VH: B1 VH with W33H, L34I, S99Q
VL: B1 VL with R54L, Y94F

One assay deals with T1, human TREM2 (triggering receptor expressed on myeloid cells 2) (human). In words: 2nd screen, 2 nM Ab.
In the case of B1, the Binding Signal (fold over 6E7 parental antibody) is 4 fold.
In the case of B2, the Binding Signal (fold over 6E7 parental antibody) turned out to be 3.69 fold.

The target is the same in a further assay. The experiment in a line: 1st screen, 10 nM Ab.
For the molecule B1, the Binding Signal (fold over 6E7 parental antibody) came to 3.38 fold.
On to B2, for which the Binding Signal (fold over 6E7 parental antibody) came to 3.46 fold.

A further assay has the same target. The experiment in a line: 2nd screen, 10 nM Ab.
B1: the Binding Signal (fold over 6E7 parental antibody) was determined as 3.44 fold.
Turning to B2, the Binding Signal (fold over 6E7 parental antibody) was 3.49 fold.

For another assay the target is unchanged. In words: 1st screen, 110 nM Ab.
In the case of B3, the Binding Signal (fold over 6E7 parental antibody) is 0.23 fold.
Regarding B4, the Binding Signal (fold over 6E7 parental antibody) came to 0.35 fold.
For B5, the Binding Signal (fold over 6E7 parental antibody) was found to be 0.11 fold.
For B6, the Binding Signal (fold over 6E7 parental antibody) came out at 0.28 fold.
On the same count and under the same terms, with B7 the figure was 0.79 fold; with B8, 0.2 fold; with B9, 0.79 fold.
Consider B10, for which the Binding Signal (fold over 6E7 parental antibody) was 0.59 fold.
As to B11, the Binding Signal (fold over 6E7 parental antibody) turned out to be 0.3 fold.
Regarding B12, the Binding Signal (fold over 6E7 parental antibody) stood at 0.17 fold.
In the case of B13, the Binding Signal (fold over 6E7 parental antibody) turned out to be 0.31 fold.
Consider B14, for which the Binding Signal (fold over 6E7 parental antibody) was determined as 0.67 fold.
Take B15: the Binding Signal (fold over 6E7 parental antibody) came out at 0.4 fold.
On to B16, for which the Binding Signal (fold over 6E7 parental antibody) worked out at 0.7 fold.
Still for that read-out and setting: with B17 the figure was 0.37 fold; with B18, 0.76 fold.
Same read-out and setting: the result for B19 reads 0.76 fold; that for B20, 0.22 fold.
The same measure, in the same setting: with B21 the figure was 0.79 fold; with B22, 0.82 fold; with B23, 0.25 fold.
As for B24, the Binding Signal (fold over 6E7 parental antibody) turned out to be 0.3 fold.
Still for that read-out and setting: the result for B25 reads 0.33 fold.
Regarding B26, the Binding Signal (fold over 6E7 parental antibody) stood at 0.59 fold.
The same measure, in the same setting: the result for B27 reads 0.61 fold; that for B28, 0.18 fold.
The same measure, in the same setting: the result for B29 reads 0.2 fold; that for B30, 0.86 fold; that for B31, 0.17 fold.

The next assay has the same target. The experiment in a line: 2nd screen, 100 nM Ab.
For the molecule B3, the Binding Signal (fold over 6E7 parental antibody) is 0.34 fold.
In the case of B4, the Binding Signal (fold over 6E7 parental antibody) amounted to 1.05 fold.
For the molecule B5, the Binding Signal (fold over 6E7 parental antibody) came to 0.32 fold.
Take B6: the Binding Signal (fold over 6E7 parental antibody) is 0.77 fold.
B7: the Binding Signal (fold over 6E7 parental antibody) stood at 0.42 fold.
B8: the Binding Signal (fold over 6E7 parental antibody) was 0.29 fold.
On the same count and under the same terms, with B9 the figure was 0.84 fold; with B10, 0.48 fold; with B11, 0.71 fold.
With B12, the Binding Signal (fold over 6E7 parental antibody) was 0.23 fold.
As for B13, the Binding Signal (fold over 6E7 parental antibody) stood at 0.87 fold.
With B14, the Binding Signal (fold over 6E7 parental antibody) stood at 0.54 fold.
For B15, the Binding Signal (fold over 6E7 parental antibody) came to 0.4 fold.
Turning to B16, the Binding Signal (fold over 6E7 parental antibody) was 0.52 fold.
Same read-out and setting: with B17 the figure was 0.48 fold.
For the molecule B18, the Binding Signal (fold over 6E7 parental antibody) worked out at 0.7 fold.
Same read-out and setting: the result for B19 reads 0.68 fold; that for B20, 0.65 fold; that for B21, 0.72 fold.
Consider B22, for which the Binding Signal (fold over 6E7 parental antibody) was 0.89 fold.
Turning to B23, the Binding Signal (fold over 6E7 parental antibody) stood at 0.61 fold.
As for B24, the Binding Signal (fold over 6E7 parental antibody) came to 0.79 fold.
As for B25, the Binding Signal (fold over 6E7 parental antibody) came out at 0.36 fold.
Still for that read-out and setting: with B26 the figure was 0.5 fold; with B27, 0.73 fold; with B28, 0.52 fold.
Consider B29, for which the Binding Signal (fold over 6E7 parental antibody) was 0.56 fold.
For B30, the Binding Signal (fold over 6E7 parental antibody) turned out to be 1.11 fold.
Still for that read-out and setting: the result for B31 reads 0.42 fold.
